# Article PMC5984625, “Dynamic structural states of ClpB involved in its disaggregation function” (Nature Communications, 2018)
# B1: Full-length T. thermophilus ClpB (TClpB) (natural protein)
# chain: not shown
# notes: ClpB of Thermus thermophilus, full length, expressed from plasmid pMCB1; The protomer; it assembles into oligomers of varying size depending on the nucleotide; also called full-length TClpB; source: E. coli BL21(DE3) or KRX carrying pMCB1, purified
# Tests used:
# [1] = target: the molecule itself; assay: AUC; sedimentation velocity, 20 °C, 42,000 rpm, 50 mM MOPS pH 7.5, 50 mM KCl, 5 mM MgCl2, 0.5 and 2.0 mg/mL protein, with 2 mM ATPγS (preincubated 55 °C 1 min)
# [2] = target: the molecule itself; assay: AUC; sedimentation velocity, 20 °C, 42,000 rpm, 50 mM MOPS pH 7.5, 50 mM KCl, 5 mM MgCl2, 0.5 and 2.0 mg/mL protein, with 20 mM ADP (preincubated 55 °C 1 min)
# [3] = target: the molecule itself; assay: AUC; sedimentation velocity, 20 °C, 42,000 rpm, 50 mM MOPS pH 7.5, 50 mM KCl, 5 mM MgCl2, 0.5 and 2.0 mg/mL protein, with 20 mM ATP (preincubated 55 °C 1 min)
# [4] = target: the molecule itself; assay: native MS; incubated at 55 °C with 2 mM ATP or ATPγS for 1 min, exchanged into 150 mM ammonium acetate pH 7.5 with 100 µM ATP or ATPγS at 4 °C; nanoflow electrospray
protein,measurement,setting,value
B1,stoichiometry N,[1],6
same,stoichiometry N,[2],< 6
same,stoichiometry N,[3],3
same,stoichiometry N,[4],2
